Assay results from the supplement of paper PMC10065799, “High-throughput profiling of sequence recognition by tyrosine kinases and SH2 domains using bacterial peptide display” (eLife, 2023).

test system: AncSZ; experiment: phosphorylation enrichment, bacterial display (enrichment ratio); higher = better substrate or ligand; peptides without Tyr show the background
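Also: 11-residue human phosphosite peptides and single-mutation variants displayed on the E. coli surface, counted by deep sequencing, each peptide's frequency after selection divided by its frequency in the unselected input library; frequency after pTyr selection over input frequency; kinase dosed for 20-30% of maximal phosphorylation in three min.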

Question: For KYWREYILSLE [GPC3_Y299], which phosphorylation enrichment is on record?
Answer: 1.03

Question: For VAMELYVFGGV [GAN_Y471], which phosphorylation enrichment is on record?
Answer: 1.28

Question: Which phosphorylation enrichment does the source give for TKGNEYVFRVA here?
Answer: 0.826

Question: For DENWFYTQAAS [RPS19_Y54_R56Q], which phosphorylation enrichment is on record?
Answer: 1.15

Question: How did the phosphorylation enrichment turn out when PTEAQYRFIYM [PTPN11_Y511_Q506P] was run?
Answer: 2.44

Question: With FAKTQYPDVFA [CRX_Y63_YF] as the sequence, how does the phosphorylation enrichment read?
Answer: 0.876

Question: With FLKDVYVDSKD [NDUFAF4_Y69] as the sequence, how does the phosphorylation enrichment read?
Answer: 1.11

Question: How did the phosphorylation enrichment turn out when QFQLKYSETPF [SIX6OS1_Y129_YF] was run?
Answer: 1.7

Question: With AQINLYQDVML [ZNF806_Y33] as the sequence, how does the phosphorylation enrichment read?
Answer: 1.25

Question: Which phosphorylation enrichment does the source give for YTFTSYYMHWV [IGHV1-46_Y51] here?
Answer: 1.64

Question: Which phosphorylation enrichment does the source give for HHIDYYKKTTN [FGFR1_Y654] here?
Answer: 0.577

Question: TKFRNYLIPKG [CYP2C8_Y379] was tested. Which phosphorylation enrichment did it give?
Answer: 0.47

Question: How did the phosphorylation enrichment turn out when KPNMNYDKLSQ [FLI1_Y332_R337Q] was run?
Answer: 0.495

Question: Which phosphorylation enrichment does the source give for TDKLFYIYTPG [SLC27A4_Y243_S247P] here?
Answer: 1.25

Question: With LVPPRYVRSEI [PKP2_Y194_A195V] as the sequence, how does the phosphorylation enrichment read?
Answer: 0.612

Question: With DLVSEYQQYQD [TUBB3_Y422] as the sequence, how does the phosphorylation enrichment read?
Answer: 1.57

Question: LRNIDYFRLDG [ATRX_Y2083_YF] was tested. Which phosphorylation enrichment did it give?
Answer: 3.71

Question: With PDSVDYPKKGF [CTSK_Y121_R122P_YF] as the sequence, how does the phosphorylation enrichment read?
Answer: 1.75

Question: With NLSVPYDSSLK [ABCC8_Y1353_R1352P] as the sequence, how does the phosphorylation enrichment read?
Answer: 0.601

Question: Which phosphorylation enrichment does the source give for GPIFRYDSGGA [CYP11B1_Y81_L83S] here?
Answer: 0.82

Question: How did the phosphorylation enrichment turn out when ISDNAYQYMLT [MYH7_Y162] was run?
Answer: 1.51

Question: How did the phosphorylation enrichment turn out when NLTLKYPIEHG [ACTA1_Y71_I66N] was run?
Answer: 0.767

Question: How did the phosphorylation enrichment turn out when GGGGSYNVFGN [HNRNPA1_Y312_D314V] was run?
Answer: 0.65

Question: PTTKTYFPHFH [HBA1_Y43_D48H] was tested. Which phosphorylation enrichment did it give?
Answer: 0.721

Question: Which phosphorylation enrichment does the source give for DSGKLYALDGL [INO80_Y1104_V1108G] here?
Answer: 0.829

Question: DYLEKYYKFGC [NNMT_Y24_S29C] was tested. Which phosphorylation enrichment did it give?
Answer: 1.44

Question: For LEIETYRRLLD [KRT12_Y429], which phosphorylation enrichment is on record?
Answer: 0.854

Question: How did the phosphorylation enrichment turn out when SHMVNYQPFRK [TEX37_Y25_D24N_YF] was run?
Answer: 0.528

target: EPHB1 (UniProt P54762); experiment: as above
Sequence (P54762 whole entry, looked up): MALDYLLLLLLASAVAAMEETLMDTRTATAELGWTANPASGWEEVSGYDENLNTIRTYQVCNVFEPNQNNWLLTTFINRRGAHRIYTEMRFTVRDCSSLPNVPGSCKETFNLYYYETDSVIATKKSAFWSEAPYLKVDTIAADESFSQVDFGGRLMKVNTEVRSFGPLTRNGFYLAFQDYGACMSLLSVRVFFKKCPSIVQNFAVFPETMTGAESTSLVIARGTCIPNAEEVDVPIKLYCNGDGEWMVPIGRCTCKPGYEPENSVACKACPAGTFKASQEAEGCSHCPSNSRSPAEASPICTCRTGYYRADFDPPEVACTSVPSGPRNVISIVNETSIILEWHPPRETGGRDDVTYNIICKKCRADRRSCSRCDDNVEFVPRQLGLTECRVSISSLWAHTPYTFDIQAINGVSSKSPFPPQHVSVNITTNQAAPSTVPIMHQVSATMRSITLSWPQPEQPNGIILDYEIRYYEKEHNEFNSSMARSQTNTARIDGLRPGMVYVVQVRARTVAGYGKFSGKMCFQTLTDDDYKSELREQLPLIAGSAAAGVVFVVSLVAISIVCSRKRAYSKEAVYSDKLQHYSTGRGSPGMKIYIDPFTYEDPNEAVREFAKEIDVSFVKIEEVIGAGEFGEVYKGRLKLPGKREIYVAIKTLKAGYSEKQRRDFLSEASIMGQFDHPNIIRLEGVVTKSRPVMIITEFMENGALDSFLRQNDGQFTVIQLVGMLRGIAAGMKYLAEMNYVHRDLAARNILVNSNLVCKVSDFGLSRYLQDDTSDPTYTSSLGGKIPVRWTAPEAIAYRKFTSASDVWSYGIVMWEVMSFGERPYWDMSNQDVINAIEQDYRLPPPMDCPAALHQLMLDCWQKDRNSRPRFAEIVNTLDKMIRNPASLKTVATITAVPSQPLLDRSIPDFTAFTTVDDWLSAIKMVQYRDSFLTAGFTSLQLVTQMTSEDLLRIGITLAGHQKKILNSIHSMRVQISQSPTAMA

Question: For KYWREYILSLE [GPC3_Y299], which phosphorylation enrichment is on record?
Answer: 0.541

Question: Which phosphorylation enrichment does the source give for VAMELYVFGGV [GAN_Y471] here?
Answer: 0.799

Question: How did the phosphorylation enrichment turn out when TKGNEYVFRVA was run?
Answer: 0.415

Question: DENWFYTQAAS [RPS19_Y54_R56Q] was tested. Which phosphorylation enrichment did it give?
Answer: 0.49

Question: Which phosphorylation enrichment does the source give for PTEAQYRFIYM [PTPN11_Y511_Q506P] here?
Answer: 1.08

Question: FAKTQYPDVFA [CRX_Y63_YF] was tested. Which phosphorylation enrichment did it give?
Answer: 0.469

Question: Which phosphorylation enrichment does the source give for FLKDVYVDSKD [NDUFAF4_Y69] here?
Answer: 0.459

Question: With QFQLKYSETPF [SIX6OS1_Y129_YF] as the sequence, how does the phosphorylation enrichment read?
Answer: 0.957

Question: Which phosphorylation enrichment does the source give for AQINLYQDVML [ZNF806_Y33] here?
Answer: 15

Question: For YTFTSYYMHWV [IGHV1-46_Y51], which phosphorylation enrichment is on record?
Answer: 1.84

Question: Which phosphorylation enrichment does the source give for HHIDYYKKTTN [FGFR1_Y654] here?
Answer: 0.47

Question: TKFRNYLIPKG [CYP2C8_Y379] was tested. Which phosphorylation enrichment did it give?
Answer: 0.374

Question: How did the phosphorylation enrichment turn out when KPNMNYDKLSQ [FLI1_Y332_R337Q] was run?
Answer: 0.418

Question: TDKLFYIYTPG [SLC27A4_Y243_S247P] was tested. Which phosphorylation enrichment did it give?
Answer: 0.683

Question: How did the phosphorylation enrichment turn out when LVPPRYVRSEI [PKP2_Y194_A195V] was run?
Answer: 0.538

Question: Which phosphorylation enrichment does the source give for DLVSEYQQYQD [TUBB3_Y422] here?
Answer: 0.721

Question: Which phosphorylation enrichment does the source give for LRNIDYFRLDG [ATRX_Y2083_YF] here?
Answer: 2.95

Question: For PDSVDYPKKGF [CTSK_Y121_R122P_YF], which phosphorylation enrichment is on record?
Answer: 1.48

Question: NLSVPYDSSLK [ABCC8_Y1353_R1352P] was tested. Which phosphorylation enrichment did it give?
Answer: 0.451

Question: GPIFRYDSGGA [CYP11B1_Y81_L83S] was tested. Which phosphorylation enrichment did it give?
Answer: 0.487

Question: With ISDNAYQYMLT [MYH7_Y162] as the sequence, how does the phosphorylation enrichment read?
Answer: 0.659

Question: Which phosphorylation enrichment does the source give for NLTLKYPIEHG [ACTA1_Y71_I66N] here?
Answer: 0.493

Question: Which phosphorylation enrichment does the source give for GGGGSYNVFGN [HNRNPA1_Y312_D314V] here?
Answer: 0.404

Question: How did the phosphorylation enrichment turn out when PTTKTYFPHFH [HBA1_Y43_D48H] was run?
Answer: 0.457

Question: How did the phosphorylation enrichment turn out when DSGKLYALDGL [INO80_Y1104_V1108G] was run?
Answer: 0.723

Question: How did the phosphorylation enrichment turn out when DYLEKYYKFGC [NNMT_Y24_S29C] was run?
Answer: 0.824

Question: LEIETYRRLLD [KRT12_Y429] was tested. Which phosphorylation enrichment did it give?
Answer: 0.616

Question: How did the phosphorylation enrichment turn out when SHMVNYQPFRK [TEX37_Y25_D24N_YF] was run?
Answer: 0.376
